Data as given in US20220332804A1 (CSL INNOVATION, published 2022).

Experiments:
Test in all cases: SPR, antibody captured, C2 as analyte;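 note: biacore at 37 °C, anti-C2 mAbs held by immobilised goat anti-human IgG, C2 alanine or serine mutants injected, double-referenced sensorgrams fitted to a 1:1 kinetic or steady-state model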
human C2 N268A = molecular target: T1, human C2 N268A (human, UniProt P06681 21-752)
T1 sequence: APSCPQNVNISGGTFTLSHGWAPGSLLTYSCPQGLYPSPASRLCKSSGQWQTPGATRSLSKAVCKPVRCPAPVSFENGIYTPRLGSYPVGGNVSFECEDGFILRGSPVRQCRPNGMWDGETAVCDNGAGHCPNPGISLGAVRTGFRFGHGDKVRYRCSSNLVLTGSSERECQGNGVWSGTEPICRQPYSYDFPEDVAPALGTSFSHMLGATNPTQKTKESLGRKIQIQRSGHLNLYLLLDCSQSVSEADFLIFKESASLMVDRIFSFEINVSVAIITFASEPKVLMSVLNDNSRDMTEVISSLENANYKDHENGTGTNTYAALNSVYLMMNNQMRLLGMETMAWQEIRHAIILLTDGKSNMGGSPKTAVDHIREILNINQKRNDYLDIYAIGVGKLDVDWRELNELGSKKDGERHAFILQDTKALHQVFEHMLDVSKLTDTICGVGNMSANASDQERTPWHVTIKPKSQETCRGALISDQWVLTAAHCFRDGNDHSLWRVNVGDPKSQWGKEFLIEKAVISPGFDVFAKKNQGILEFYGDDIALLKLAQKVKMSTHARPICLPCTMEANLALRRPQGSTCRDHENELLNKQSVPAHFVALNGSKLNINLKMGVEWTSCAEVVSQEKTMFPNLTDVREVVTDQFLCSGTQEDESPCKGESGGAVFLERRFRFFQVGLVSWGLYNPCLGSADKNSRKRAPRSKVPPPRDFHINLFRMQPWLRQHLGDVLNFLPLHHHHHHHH

human C2 T442A = molecular target: T2, human C2 T442A (human, UniProt P06681 21-752)
T2 sequence: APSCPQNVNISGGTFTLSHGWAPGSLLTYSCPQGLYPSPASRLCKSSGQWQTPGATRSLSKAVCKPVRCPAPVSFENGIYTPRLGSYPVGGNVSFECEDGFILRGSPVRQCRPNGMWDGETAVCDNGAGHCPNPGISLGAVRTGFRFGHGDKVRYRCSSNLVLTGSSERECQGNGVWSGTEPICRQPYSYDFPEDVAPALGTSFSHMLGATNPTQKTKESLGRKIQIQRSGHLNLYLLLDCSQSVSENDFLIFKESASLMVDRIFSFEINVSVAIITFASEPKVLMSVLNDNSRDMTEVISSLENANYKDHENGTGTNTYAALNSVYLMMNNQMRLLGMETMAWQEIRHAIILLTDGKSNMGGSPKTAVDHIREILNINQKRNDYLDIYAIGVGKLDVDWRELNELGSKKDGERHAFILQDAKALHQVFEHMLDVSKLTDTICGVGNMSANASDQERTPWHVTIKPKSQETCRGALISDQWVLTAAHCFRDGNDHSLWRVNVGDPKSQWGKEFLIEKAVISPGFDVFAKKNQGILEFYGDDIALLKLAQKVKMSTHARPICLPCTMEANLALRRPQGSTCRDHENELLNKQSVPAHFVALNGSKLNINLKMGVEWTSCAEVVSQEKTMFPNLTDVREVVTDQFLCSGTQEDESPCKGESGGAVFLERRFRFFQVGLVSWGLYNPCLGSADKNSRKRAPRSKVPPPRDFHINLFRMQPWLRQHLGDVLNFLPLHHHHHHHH

human C2 T317A = molecular target: T3, human C2 T317A (human, UniProt P06681 21-752)
T3 sequence: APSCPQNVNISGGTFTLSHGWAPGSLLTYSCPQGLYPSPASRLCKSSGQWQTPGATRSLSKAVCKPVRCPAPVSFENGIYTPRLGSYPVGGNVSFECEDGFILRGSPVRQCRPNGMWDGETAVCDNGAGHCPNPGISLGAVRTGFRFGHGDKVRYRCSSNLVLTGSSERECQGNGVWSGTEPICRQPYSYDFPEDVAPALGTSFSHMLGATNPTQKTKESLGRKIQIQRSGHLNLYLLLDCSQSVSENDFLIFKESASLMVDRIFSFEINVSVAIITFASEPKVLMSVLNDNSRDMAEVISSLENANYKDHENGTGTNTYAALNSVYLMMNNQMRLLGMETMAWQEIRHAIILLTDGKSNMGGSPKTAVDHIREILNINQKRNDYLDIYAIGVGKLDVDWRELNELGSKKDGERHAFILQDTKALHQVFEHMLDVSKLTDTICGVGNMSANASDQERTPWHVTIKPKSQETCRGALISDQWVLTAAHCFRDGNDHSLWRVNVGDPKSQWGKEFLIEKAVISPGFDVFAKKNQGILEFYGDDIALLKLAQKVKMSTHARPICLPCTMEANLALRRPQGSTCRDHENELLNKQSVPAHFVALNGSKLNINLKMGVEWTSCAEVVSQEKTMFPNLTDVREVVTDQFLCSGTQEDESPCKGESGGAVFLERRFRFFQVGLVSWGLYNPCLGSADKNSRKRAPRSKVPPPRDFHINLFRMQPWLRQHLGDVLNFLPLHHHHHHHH

human C2 S456A = molecular target: T4, human C2 S456A (human, UniProt P06681 21-752)
T4 sequence: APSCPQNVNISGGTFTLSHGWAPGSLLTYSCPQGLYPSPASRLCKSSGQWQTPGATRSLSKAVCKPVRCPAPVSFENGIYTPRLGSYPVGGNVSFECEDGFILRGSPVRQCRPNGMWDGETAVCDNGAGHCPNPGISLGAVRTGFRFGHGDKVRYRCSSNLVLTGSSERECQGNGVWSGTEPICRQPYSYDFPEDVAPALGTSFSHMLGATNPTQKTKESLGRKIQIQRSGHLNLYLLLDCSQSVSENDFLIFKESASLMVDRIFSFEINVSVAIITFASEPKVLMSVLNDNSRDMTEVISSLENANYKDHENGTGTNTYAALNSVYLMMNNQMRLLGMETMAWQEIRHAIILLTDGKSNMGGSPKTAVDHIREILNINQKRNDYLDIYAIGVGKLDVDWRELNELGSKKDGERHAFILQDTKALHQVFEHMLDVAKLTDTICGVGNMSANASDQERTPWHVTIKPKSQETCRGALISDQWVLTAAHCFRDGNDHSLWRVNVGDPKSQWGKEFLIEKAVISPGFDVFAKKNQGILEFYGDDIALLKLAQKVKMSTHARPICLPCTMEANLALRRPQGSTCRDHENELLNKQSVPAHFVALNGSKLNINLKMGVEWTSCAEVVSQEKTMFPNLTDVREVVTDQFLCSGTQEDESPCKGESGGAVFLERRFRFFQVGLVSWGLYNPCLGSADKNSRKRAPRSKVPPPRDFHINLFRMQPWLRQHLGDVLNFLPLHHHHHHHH

B1: RF16-242 (antibody, human IgG4 S228P, lambda, V domains shown)
VH: EVQLLQSGAEVKKPGESLKISCKGSGYSFTSYWIGWVRQMPGKGLEWMGIIYPGDSDTRYSPSFQGQVTISADKSISTAYLQWSSLKASDTAMYYCARRGHYGDYFDYWGQGTLVTVSS
VL: SYELTQPPSVSVSPGQTARITCSGDALPKKYAYWYHQKSGQAPVLVIYEDRRRPSEIPERFSGSSSGTMATLTITGAQVEDEGVYFCYSRDRAGNQRVFGGGTQLTVLG
notes: pH-dependent anti-C2 antibody from a phage display library
Kd (human C2 N268A): 14.8 nM
Kd (human C2 T442A): 18 nM
Kd (human C2 T317A): 5.9 nM
Kd (human C2 S456A): 59.8 nM
